The supplement of paper PMC5998384

Assays:
HeLa Kyoto [1] = test: solubility change mitosis vs G1/S (difference of NP-40 vs SDS log2 ratios) (log2 ratio difference); higher = more soluble in mitosis
HeLa Kyoto [2] = test: solubility in G1/S (NP-40 vs SDS abundance) (log2 ratio); higher = more soluble; conditions: cell cycle stage: G1/S
HeLa Kyoto [3] = test: thermal stability score vs G1/S (z-score of summed log2 fold changes over temperatures); higher = more thermally stable than in G1/S
HeLa Kyoto [4] = test: melting temperature (median over replicates), in situ; higher = more thermally stable
[5] = cell cycle stage: early G1 (4.5 h after nocodazole release)
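Throughout, for melting temperature (median over replicates), in situ: HeLa Kyoto cells synchronized by double thymidine or nocodazole block, proteins quantified by TMT10plex mass spectrometry, three independent biological replicates.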
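Throughout, for solubility change mitosis vs G1/S (difference of NP-40 vs SDS log2 ratios): synchronized HeLa Kyoto cells (double thymidine block for G1/S, nocodazole release for mitosis), protein amounts in NP-40 versus SDS lysates quantified by mass spectrometry, three biological replicates.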
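Throughout, for solubility in G1/S (NP-40 vs SDS abundance): HeLa Kyoto cells arrested at G1/S by double thymidine block, proteins quantified by TMT10plex mass spectrometry in mild NP-40 versus SDS extracts, three biological replicates.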
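Throughout, for thermal stability score vs G1/S (z-score of summed log2 fold changes over temperatures): synchronized HeLa Kyoto cells, proteins quantified by TMT10plex mass spectrometry, three biological replicates, mitosis taken 0.5 h after nocodazole release, G1/S directly after double thymidine block.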

| Sequence | solubility change mitosis (log2) (HeLa Kyoto [1]) | solubility in G1/S (log2) (HeLa Kyoto [2]) | thermal stability score (HeLa Kyoto [3]; [5]) | thermal stability score (HeLa Kyoto [3]; cell cycle stage: mitosis) | melting temperature (HeLa Kyoto [4]; cell cycle stage: G1/S) | melting temperature (HeLa Kyoto [4]; cell cycle stage: mitosis) |
| --- | --- | --- | --- | --- | --- | --- |
| MEAPLQTGMMGTSSHGLATNSSGAKVAERDGFQDVLAPGEGSAGRICGAQPVPFVPQVLGVMIGAGVAVVVTAVLILLVVRRLRVPKTPAPDGPRYRFRKRDKVLFYGRKIMRKVSQSTSSLVDTSVSATSRPRMRKKLKMLNIAKKILRIQKETPTLQRKEPPPAVLEADLTEGDLANSHLPSEVLYMLKNVRVLGHFEKPLFLELCRHMVFQRLGQGDYVFRPGQPDASIYVVQDGLLELCLPGPDGKECVVKEVVPGDSVNSLLSILDVITGHQHPQRTVSARAARDSTVLRLPVEAFSAVFTKYPESLVRVVQIIMVRLQRVTFLALHNYLGLTNELFSHEIQPLRLFPSPGLPTRTSPVRGSKRMVSTSATDEPRETPGRPPDPTGAPLPGPTGDPVKPTSLETPSAPLLSRCVSMPGDISGLQGGPRSDFDMAYERGRISVSLQEEASGGSLAAPARTPTQEPREQPAGACEYSYCEDESATGGCPFGPYQGRQTSSIFEAAKQELAKLMRIEDPSLLNSRVLLHHAKAGTIIARQGDQDVSLHFVLWGCLHVYQRMIDKAEDVCLFVAQPGELVGQLAVLTGEPLIFTLRAQRDCTFLRISKSDFYEIMRAQPSVVLSAAHTVAARMSPFVRQMDFAIDWTAVEAGRALYRQGDRSDCTYIVLNGRLRSVIQRGSGKKELVGEYGRGDLIGVVEALTRQPRATTVHAVRDTELAKLPEGTLGHIKRRYPQVVTRLIHLLSQKILGNLQQLQGPFPAGSGLGVPPHSELTNPASNLATVAILPVCAEVPMVAFTLELQHALQAIGPTLLLNSDIIRARLGASALDSIQEFRLSGWLAQQEDAHRIVLYQTDASLTPWTVRCLRQADCILIVGLGDQEPTLGQLEQMLENTAVRALKQLVLLHREEGAGPTRTVEWLNMRSWCSGHLHLRCPRRLFSRRSPAKLHELYEKVFSRRADRHSDFSRLARVLTGNTIALVLGGGGARGCSHIGVLKALEEAGVPVDLVGGTSIGSFIGALYAEERSASRTKQRAREWAKSMTSVLEPVLDLTYPVTSMFTGSAFNRSIHRVFQDKQIEDLWLPYFNVTTDITASAMRVHKDGSLWRYVRASMTLSGYLPPLCDPKDGHLLMDGGYINNLPADIARSMGAKTVIAIDVGSQDETDLSTYGDSLSGWWLLWKRLNPWADKVKVPDMAEIQSRLAYVSCVRQLEVVKSSSYCEYLRPPIDCFKTMDFGKFDQIYDVGYQYGKAVFGGWSRGNVIEKMLTDRRSTDLNESRRADVLAFPSSGFTDLAEIVSRIEPPTSYVSDGCADGEESDCLTEYEEDAGPDCSRDEGGSPEGASPSTASEMEEEKSILRQRRCLPQEPPGSATDA [PNPLA6] | -0.0785 | -0.179 | -0.313 | -1.07 | 51.4 °C | 50.8 °C |
| MEAVLNELVSVEDLLKFEKKFQSEKAAGSVSKSTQFEYAWCLVRSKYNDDIRKGIVLLEELLPKGSKEEQRDYVFYLAVGNYRLKEYEKALKYVRGLLQTEPQNNQAKELERLIDKAMKKDGLVGMAIVGGMALGVAGLAGLIGLAVSKSKS [FIS1] | 0.251 | 0.15 | -2.36 | -0.553 | 54.2 °C | 53.8 °C |
| MECPHLSSSVCIAPDSAKFPNGSPSSWCCSVCRSNKSPWVCLTCSSVHCGRYVNGHAKKHYEDAQVPLTNHKKSEKQDKVQHTVCMDCSSYSTYCYRCDDFVVNDTKLGLVQKVREHLQNLENSAFTADRHKKRKLLENSTLNSKLLKVNGSTTAICATGLRNLGNTCFMNAILQSLSNIEQFCCYFKELPAVELRNGKTAGRRTYHTRSQGDNNVSLVEEFRKTLCALWQGSQTAFSPESLFYVVWKIMPNFRGYQQQDAHEFMRYLLDHLHLELQGGFNGVSRSAILQENSTLSASNKCCINGASTVVTAIFGGILQNEVNCLICGTESRKFDPFLDLSLDIPSQFRSKRSKNQENGPVCSLRDCLRSFTDLEELDETELYMCHKCKKKQKSTKKFWIQKLPKVLCLHLKRFHWTAYLRNKVDTYVEFPLRGLDMKCYLLEPENSGPESCLYDLAAVVVHHGSGVGSGHYTAYATHEGRWFHFNDSTVTLTDEETVVKAKAYILFYVEHQAKAGSDKL [USP3] | -0.13 | -0.0307 | 0.817 | 1.54 | 49.4 °C | 49.4 °C |
| MEDEMPKTLYVGNLSRDVTEALILQLFSQIGPCKNCKMIMDTAGNDPYCFVEFHEHRHAAAALAAMNGRKIMGKEVKVNWATTPSSQKKDTSSSTVVSTQRSQDHFHVFVGDLSPEITTEDIKAAFAPFGRISDARVVKDMATGKSKGYGFVSFFNKWDAENAIQQMGGQWLGGRQIRTNWATRKPPAPKSTYESNTKQLSYDEVVNQSSPSNCTVYCGGVTSGLTEQLMRQTFSPFGQIMEIRVFPDKGYSFVRFNSHESAAHAIVSVNGTTIEGHVVKCYWGKETLDMINPVQQQNQIGYPQPYGQWGQWYGNAQQIGQYMPNGWQVPAYGMYGQAWNQQGFNQTQSSAPWMGPNYGVQPPQGQNGSMLPNQPSGYRVAGYETQ [TIA1] | 0.0786 | 0.0405 | -0.653 | -1.44 | 53.5 °C | 53 °C |
| MEDHQHVPIDIQTSKLLDWLVDRRHCSLKWQSLVLTIREKINAAIQDMPESEEIAQLLSGSYIHYFHCLRILDLLKGTEASTKNIFGRYSSQRMKDWQEIIALYEKDNTYLVELSSLLVRNVNYEIPSLKKQIAKCQQLQQEYSRKEEECQAGAAEMREQFYHSCKQYGITGENVRGELLALVKDLPSQLAEIGAAAQQSLGEAIDVYQASVGFVCESPTEQVLPMLRFVQKRGNSTVYEWRTGTEPSVVERPHLEELPEQVAEDAIDWGDFGVEAVSEGTDSGISAEAAGIDWGIFPESDSKDPGGDGIDWGDDAVALQITVLEAGTQAPEGVARGPDALTLLEYTETRNQFLDELMELEIFLAQRAVELSEEADVLSVSQFQLAPAILQGQTKEKMVTMVSVLEDLIGKLTSLQLQHLFMILASPRYVDRVTEFLQQKLKQSQLLALKKELMVQKQQEALEEQAALEPKLDLLLEKTKELQKLIEADISKRYSGRPVNLMGTSL [CDK5RAP3] | -0.0399 | 0.203 | 1.2 | 2.62 | 49.5 °C | 49.4 °C |
